Measured values reported in the nanobody polyreactivity screen of Harvey et al. (2022).

Test: yeast display, Sf9 membrane polyspecificity reagent, FACS + sequencing; frameworks hold sequencing errors
How it was run: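 Nanobodies from a synthetic yeast display library (Saccharomyces cerevisiae BJ5465), induced 36–48 hours with galactose, were stained 1 hour at 4 °C with 10% biotinylated, detergent-solubilized Sf9 membrane reagent, enriched on streptavidin microbeads, then FACS-sorted. Anti-HA (expression) and streptavidin (reagent binding) fluorescence set low and high (top ~1%) gates. Polyreactivity labels come from the gate of origin. Genes were colony-PCR amplified, MiSeq 2 × 250 sequenced and filtered by CDR length.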

Sequence | polyreactivity (PSR sort gate)
QVQLVESGGGLVQAGGRLRLSCAASGFTIRWYTMGWYRQAPGKERELVAAISRGGSTNYADSVKGRFTISRDNAKNTVYLQMNSLKPEDTAVYYCAATVYAFTYPYDYWGQGTQVTVSS | high polyreactivity
QVQLVESGGGLVQAGGRLRLSCAASGFTLWGYAMGWYRQAPGKERELVASMSWSGGGTNYADSVKGRFTISRDNAKNTVYLQMNSLKPEDPAVYYCAAQYYTVSRYYGVERKFGYWGQGSQVTVSS | high polyreactivity
QVQLVESGGGLVQAGGRLRLSCAASGGIFGQNAMRWYRQAPGKERELVAGISASGGSTYYADSVKGRFTISRDNAKNTVYLQRNSLKPEDTAVYYCAARTKRRRYDYWGQGTQVTVSS | high polyreactivity
QVQLVESGGGLVQAGGRLRLSCAASGGIFIKNAMGWYRQAPGKERELVAGISSGGNTYYADSVKGRFTISRDNAKNTVYLQMNSLKPEDTAVYYCAVRYYRRFGPLYDSWGQGTHVTVSS | low polyreactivity
QVQLVESGGGLVQAGGRLRLSCAASGGIIWAYAMGRYRQAPGKERELVAAISSSTGTTYYADSVKGRFTISRDNAKNTVYLQMNSLKPEETAVYYCAAYAYIGDYVSYYGGDYWGQGTQVTVSS | low polyreactivity
QVQLVESGGGLVQAGGRLRLSCAASGGTFSSNAMGWYRQSPGKERELVAAITWSGGSTYYADSVKGRFTISRDNAKNTVYLQMNSLKPEDTAVYYCNARNQWRTVGKYDYWGQGTQVTVSS | low polyreactivity
QVQLVESGGGLVQAGGRLRLSCAASGIIFKYNAMGWYIQAPGKEREFVAAITGSGGSTYYADSVKGRFTISRDNAKNTVYLQMNSLKPEDTAVYYCARPQWRDWYGYWGQGTQVTVSS | low polyreactivity
QVQLVESGGGLVQAGGRLRLSCAASGIIFTPYAMGRYRQAPGKERELVAAISWIGGRTYYADSVKGRFTISRDKAKNTVYLQMNSLKPEDTAVYYCAASYRAWSGNYWGQGTQVTVSS | high polyreactivity
QVQLVESGGGLVQAGGRLRLSCAASGITFYDYAMGWYRQAHGKERELVAVITRRGGSTYYAHSVKGRFTISRDNAKNTVYLQMNSLKPEDTAVYYCNADRTAPERYSRVPSSDSWGQGTQVTVSS | high polyreactivity
QVQLVESGGGLVQAGGRLRLSCAASGITSLDNAMGWYRQAPGKQRELVAGIKSGGSTNYADSVKGRFTISRDNAKNTVYLQMNSLKPEDTAVYYCAADDFIGSGRLVARGRYDYWGQGTQVTVSS | low polyreactivity
QVQLVESGGGLVQAGGRLRLSCAASGLIFPAYAMGWYRQAPGKERELVATITWRGGSTYYADSVKGRFTISRDNAKNTVYLQMNSLKPEDTAVDYCATRPRYYYFRYDYWGQGTQVTVSS | high polyreactivity
QVQLVESGGGLVQAGGRLRLSCAASGLIFRAYAMGWYRQAPGKERELVAAISRRGGSTYYADSVKGRFTISRDNAKNTVYLQMNSLKPEDTAVYYCAATSRVSKSHLYGYWGQGTQVTVSS | high polyreactivity
QVQLVESGGGLVQAGGRLRLSCAASGLIFWFNTMGWYRQAPGKERELVAAITSGGGSTYYADSVKGRFTISRDNAKNTVYLQMNSLKPEDTAVYYCNAGAGRWRARQWHDYWGQGTQVTVSS | low polyreactivity
QVQLVESGGGLVQAGGRLRLSCAASGLIFYVYAMGWYRQEPGKERELVASITWSGGRTYYADSVKGRFTISRDNEKNTVYLQMNSLKPEDTAVYYCATDLIQGAAPFRYDYWGQGTQVTVSS | low polyreactivity
QVQLVESGGGLVQAGGRLRLSCAASGLTFGGNAMGWYRQAPGKERELVAAISWSDDTTDYADSVKGLFTISRDNAKNTVYFQMNRLKPEDTAVYYCAARLPFEHVDYWGQGTQVTVSS | low polyreactivity
QVQLVESGGGLVQAGGRLRLSCAASGRIFATNAMGWYRQAPGKERELVATITRSAGRTYYADSVKGRFTISRDNAKNTVYLQMNSLKPEDTAVYYCAADGYSTAVDDTVRYIVEYEFWGQGTQVTVSS | low polyreactivity
QVQLVESGGGLVQAGGRLRLSCAASGRIFDRYAMGWYRQAPGKERELVAGISFSGGRTYYADSVKGRFTISRDNAKNTVYLQMNSLKPEDTAVYYCNTVTSGFLSYDYWGQGTQVTVSS | high polyreactivity
QVQLVESGGGLVQAGGRLRLSCAASGRIFKSNAMGWYRQAPGKERELVATIDVIGTSTYYADSVKGRFTISRDNAKNTVYLQMNSLKPEDTAVYYCAAVGWGGWSDSYDYWGQGTQVTVSS | low polyreactivity
QVQLVESGGGLVQAGGRLRLSCAASGRIFKTNAMGWYRQAPGKERELVPAISKRGGRTYYADSVKGRFTISRDNAKNTVYLQMNSLKPEDTAVYYCATRYSGYSLGDYWGQGTQVTVSS | high polyreactivity
QVQLVESGGGLVQAGGRLRLSCAASGRIFLFYDMGWYRQAPGKERELVATISFRRGSTYYADSVKGRFTISRDNAKNTVYLQMNSLKPEDTAVYYCAKQNKRGYSTSAYYYWGQGTQVTVSS | low polyreactivity
QVQLVESGGGLVQAGGRLRLSCAASGRIFLGNVMGWYRQAPGKERELVAAISSGGSTNYADSVKGRFTISRDNAKNTVYLQMNSLKPEDTAVYYCAAYFVRDWKLYYYWGQGTQVTVSS | low polyreactivity
QVQLVESGGGLVQAGGRLRLSCAASGRIFRGYAMGWYRQAPGKERELVAGITWGGGRTYYADSVKGRFTISRDNAKNTVYLQLNSLKPEDTAVYYCAAYYSQDSRRKYDYWGQGTQVTVSS | high polyreactivity

Sequence | polyreactivity (PSR sort gate)
QVQLVESGGGLVQAGGRLRLSCAASGRIFTYNAMGWYRQAPGKEREFVAAISSGGSTTYADSVKGRFTISRDNAKNTVYLQMNSRKPEDTAVYYCAARGWRFAIIEYEYWGQGTQVTVSS | low polyreactivity
QVQLVESGGGLVQAGGRLRLSCAASGRIFVYYAMGWYRQAPGQERELVAAITYSVDSTYYADSVKGRFTISRDNAKNTVYLQMNSLKPEDTAVYYCATDVDWAYGYQYEYWGQGTQVTVSS | low polyreactivity
QVQLVESGGGLVQAGGRLRLSCAASGRIFYGNAMGRYRPAPVKERELVATISSSGGSTTYADSVKGRFTISRDNAKYTVYLQMNSLKPEDSAVYYCADQGYWTGYDYWGQGSQVTVSS | high polyreactivity
QVQLVESGGGLVQAGGRLRLSCAASGRIFYYYAMGWYRQAPGKERELVAAINRSGGSTYYADSVKGRFTISRDNAKNTVYLQMNSLKPEDTAVYSCASYDYWGQGTQVTVSS | high polyreactivity
QVQLVESGGGLVQAGGRLRLSCAASGRISYYYTMGWYRQAPGKERQLVAAISWSGGTTYYADSVKGRFTISRDNAKNTVYLQMNSLKPEDTAVYYCAAREYYTDVHGTRRYDYWGQGTQVTVSS | low polyreactivity
QVQLVESGGGLVQAGGRLRLSCAASGRTFGRYAMGWYRQAPGKERELVAAITGGVITTYADSVKGRFTISRDNAKNTVYLQMNSLKPEDTAVYYCAARYNVFPSPHYYYWGQGTQVTVSS | low polyreactivity
QVQLVESGGGLVQAGGRLRLSCAASGRTFGVYAMGWYRQSPGKEREFVGVISWSDDSTYYADSVKGRFTISRDNAKNTVYLQMNSLKPEDTAVYYCNADDYLVYSGSHYGYWGQGTQVTVSS | low polyreactivity
QVQLVESGGGLVQAGGRLRLSCAASGRTFKLYAMGWYRQAPGKERELVAAISGRGGSTYYADSVKGRFTISRDNAKNTVYLQMNSLKPEDTAVYYCNWYGKYEYWGQGTQVTVSS | high polyreactivity
QVQLVESGGGLVQAGGRLRLSCAASGRTFRYNAMGGSRQAPGKERELVAAISGGDSTYYADSEKGRFTFSRDNAKNTVYLQMNCLKPEDTAVYYCAGRTYRRRVSQSVSRNDYWGQGTQVTVSS | high polyreactivity
QVQLVESGGGLVQAGGRLRLSCAASGRTFTSNAMGWYRQAPGKERELVAAIDDGGSTNYADSVKGRFTISRDNAKNTVYLQMNSLKPEDTAVYYCNAPITWQYRGFRRRFDYWGQGTQVTVSS | low polyreactivity
QVQLVESGGGLVQAGGRLRLSCAASGRTFVPYAMGWYRQPPGKERELVAAISYSGDSTYYADSEKGRFTISRDNAKNTVYLQMNSLKPEDTAVYYCAARGGNPFYYWGQGTQVTVSS | low polyreactivity
QVQLVESGGGLVQAGGRLRLSCAASGRTFYINTMGWYRQAPGKERELVAAISSSGDSTYYADSVKGRFTISRDNAKNTVYLQMNSLKPEDTAVYYCATDYGWYDYWGQGTQVTVSS | low polyreactivity
QVQLVESGGGLVQAGGRLRLSCAASGRTFYWYAMGWYRQAPGKETELVAAISSGGSTYYADSVKGRFTISRDNAKNTVYLQMNSLKPEDTAVYYCAAVTPSGAHRSAYHPISDYWGQGTQVTVSS | low polyreactivity
QVQLVESGGGLVQAGGRLRLSCAASGRTLATFAMGWSRQAPGKERELVAAITFSGGGSTYYADSVKGRFTISRDNAKNTVYLQMKSLKPEDTADYYCAAGPYYSLFGYGSRDNYRYYYWGQGTQVTVSS | high polyreactivity
QVQLVESGGGLVQAGGRLRLSCAASGRTLSRYAMGWYRQAPGKERELVAAINNGGNTNYADSVKGRFTISRDNAKNTVYLQMNSLKPEDTAVYYCAVRWYPRYGSSYDYWGQGTQVTVSS | high polyreactivity
QVQLVESGGGLVQAGGRLRLSCAASGRTSFDYSMGWYRQAPGKDRELVAAITSTGGSTYYADSVKGRFTISRDNAKYTVYLQMNSLKPEDTAVYYCAAVWFTHWGQYQVLEVLYDYWGQGTQVTVSS | low polyreactivity
QVQLVESGGGLVQAGGRLRLSCAASGRTYYTYAMGWYRQAPGKERELVAAITWDGGSTYYADSVKGRFTISRDNAKNTVYLQMNSLKPEDTAVYYCADDLYDTYGTFDYWGQGTQVTVSS | low polyreactivity
QVQLVESGGGLVQAGGRLRLSCAASGSIFDIYAMGLYRQAPGKERELVASIRRRGGSTYYADSVKGRFTISRDNAKNTVYLQMNSLKPEDTAVYYCNARRVWLRTTGTNWPERGYWGQGTQVTVSS | high polyreactivity
QVQLVESGGGLVQAGGRLRLSCAASGSIFDIYAMGWYRQAPGKERELVASIRRRGGSTYYADSVKGRFTISRDNAKNTVYLQKNSLKPEDTAVYYSNARRVWLRTTGTNWPERGYWGQGTQVTVSS | high polyreactivity
QVQLVESGGGLVQAGGRLRLSCAASGSIFDRYAMGWYRQAPGKERELVAAITRSGGSTYYADSVKGRFTISRDNAKNTVYLQMNSLKPEDTAVYYCNKVYPPRSIPYDFCGQGTQVTVSS | low polyreactivity
QVQLVESGGGLVQAGGRLRLSCAASGSIFGKYAMGWYRQAPGKERELVAAISKGGGRTSYADSVKGRFTISRDNAKNTVYLQMNSLKPEDTAVYYCNRYTQYRDRSDNHWGQGTQVTVSS | high polyreactivity
